Columns and labels:
[1] = system: HeLa Kyoto; test: solubility in G1/S (NP-40 vs SDS abundance) (log2 ratio); higher = more soluble; conditions: cell cycle stage: G1/S
[2] = system: HeLa Kyoto; test: melting temperature (median over replicates), in situ; higher = more thermally stable
[3] = system: HeLa Kyoto; test: solubility change mitosis vs G1/S (difference of NP-40 vs SDS log2 ratios) (log2 ratio difference); higher = more soluble in mitosis
[4] = system: HeLa Kyoto; test: thermal stability score vs G1/S (z-score of summed log2 fold changes over temperatures); higher = more thermally stable than in G1/S
[5] = cell cycle stage: early G1 (4.5 h after nocodazole release)
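Throughout, for melting temperature (median over replicates), in situ: HeLa Kyoto cells synchronized by double thymidine or nocodazole block, proteins quantified by TMT10plex mass spectrometry, three independent biological replicates.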
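Throughout, for solubility change mitosis vs G1/S (difference of NP-40 vs SDS log2 ratios): synchronized HeLa Kyoto cells (double thymidine block for G1/S, nocodazole release for mitosis), protein amounts in NP-40 versus SDS lysates quantified by mass spectrometry, three biological replicates.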
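Throughout, for solubility in G1/S (NP-40 vs SDS abundance): HeLa Kyoto cells arrested at G1/S by double thymidine block, proteins quantified by TMT10plex mass spectrometry in mild NP-40 versus SDS extracts, three biological replicates.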
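Throughout, for thermal stability score vs G1/S (z-score of summed log2 fold changes over temperatures): synchronized HeLa Kyoto cells, proteins quantified by TMT10plex mass spectrometry, three biological replicates, mitosis taken 0.5 h after nocodazole release, G1/S directly after double thymidine block.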

Chain of ANTXR1 (chain, as listed by the source): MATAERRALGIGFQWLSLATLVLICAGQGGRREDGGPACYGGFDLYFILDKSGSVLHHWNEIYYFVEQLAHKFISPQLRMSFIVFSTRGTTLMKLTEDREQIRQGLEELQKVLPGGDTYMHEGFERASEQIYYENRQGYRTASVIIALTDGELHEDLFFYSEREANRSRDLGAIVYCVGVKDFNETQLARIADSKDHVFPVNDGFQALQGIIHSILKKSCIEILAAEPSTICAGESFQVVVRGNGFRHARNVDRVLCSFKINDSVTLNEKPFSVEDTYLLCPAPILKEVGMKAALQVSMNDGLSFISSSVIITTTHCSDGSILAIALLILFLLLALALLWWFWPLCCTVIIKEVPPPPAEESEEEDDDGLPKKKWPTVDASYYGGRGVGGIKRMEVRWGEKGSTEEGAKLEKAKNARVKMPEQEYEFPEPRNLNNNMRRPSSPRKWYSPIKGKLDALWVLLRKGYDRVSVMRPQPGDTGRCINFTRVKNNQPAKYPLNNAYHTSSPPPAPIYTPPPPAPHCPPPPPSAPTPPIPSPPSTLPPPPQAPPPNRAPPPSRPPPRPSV

| Substance | solubility in G1/S (log2) [1] | melting temperature ([2]; cell cycle stage: G1/S) [°C] | melting temperature ([2]; cell cycle stage: mitosis) [°C] | solubility change mitosis (log2) [3] | thermal stability score [4, 5] | thermal stability score ([4]; cell cycle stage: mitosis) |
| --- | --- | --- | --- | --- | --- | --- |
| MIIPSLEELDSLKYSDLQNLAKSLGLRANLRATKLLKALKGYIKHEARKGNENQDESQTSASSCDETEIQISNQEEAERQPLGHVTKTRRRCKTVRVDPDSQQNHSEIKISNPTEFQNHEKQESQDLRATAKVPSPPDEHQEAENAVSSGNRDSKVPSEGKKSLYTDESSKPGKNKRTAITTPNFKKLHEAHFKEMESIDQYIERKKKHFEEHNSMNELKQQPINKGGVRTPVPPRGRLSVASTPISQRRSQGRSCGPASQSTLGLKGSLKRSAISAAKTGVRFSAATKDNEHKRSLTKTPARKSAHVTVSGGTPKGEAVLGTHKLKTITGNSAAVITPFKLTTEATQTPVSNKKPVFDLKASLSRPLNYEPHKGKLKPWGQSKENNYLNQHVNRINFYKKTYKQPHLQTKEEQRKKREQERKEKKAKVLGMRRGLILAED [NUSAP1] | -0.327 | 54.7 | 54.6 | 0.535 | 1.75 | -5.46 |
| MASPGCLLCVLGLLLCGAASLELSRPHGDTAKKPIIGILMQKCRNKVMKNYGRYYIAASYVKYLESAGARVVPVRLDLTEKDYEILFKSINGILFPGGSVDLRRSDYAKVAKIFYNLSIQSFDDGDYFPVWGTCLGFEELSLLISGECLLTATDTVDVAMPLNFTGGQLHSRMFQNFPTELLLSLAVEPLTANFHKWSLSVKNFTMNEKLKKFFNVLTTNTDGKIEFISTMEGYKYPVYGVQWHPEKAPYEWKNLDGISHAPNAVKTAFYLAEFFVNEARKNNHHFKSESEEEKALIYQFSPIYTGNISSFQQCYIFD [GGH] | 0.326 | 60.5 | 60 | -0.0381 | 0.878 | -0.77 |
| ZMYM4 | -0.601 | 46 | 49.4 | 0.281 | 1.6 | 3.25 |
| ANTXR1 | 0.0506 | 55 | 55 | 0.0236 | -1.21 | -3.82 |
| MNSSTSTMSEEPDALSVVNQLRDLAADPLNRRAIVQDQGCLPGLILFMDHPNPPVVHSALLALRYLAECRANREKMKGELGMMLSLQNVIQKTTTPGETKLLASEIYDILQSSNMADGDSFNEMNSRRRKAQFFLGTTNKRAKTVVLHIDGLDDTSRRNLCEEALLKIKGVISFTFQMAVQRCVVRIRSDLKAEALASAIASTKVMKAQQVVKSESGEEMLVPFQDTPVEVEQNTELPDYLPEDESPTKEQDKAVSRVGSHPEGGASWLSTAANFLSRSFYW [ARMC1] | 0.386 | 50.6 | 50.8 | 0.0691 | 0.134 | 0.316 |
| MASPQLCRALVSAQWVAEALRAPRAGQPLQLLDASWYLPKLGRDARREFEERHIPGAAFFDIDQCSDRTSPYDHMLPGAEHFAEYAGRLGVGAATHVVIYDASDQGLYSAPRVWWMFRAFGHHAVSLLDGGLRHWLRQNLPLSSGKSQPAPAEFRAQLDPAFIKTYEDIKENLESRRFQVVDSRATGRFRGTEPEPRDGIEPGHIPGTVNIPFTDFLSQEGLEKSPEEIRHLFQEKKVDLSKPLVATCGSGVTACHVALGAYLCGKPDVPIYDGSWVEWYMRARPEDVISEGRGKTH [MPST] | 0.45 | 50.1 | 50.5 | -0.0783 | 3.35 | 0.97 |
| MDFSRNLYDIGEQLDSEDLASLKFLSLDYIPQRKQEPIKDALMLFQRLQEKRMLEESNLSFLKELLFRINRLDLLITYLNTRKEEMERELQTPGRAQISAYRVMLYQISEEVSRSELRSFKFLLQEEISKCKLDDDMNLLDIFIEMEKRVILGEGKLDILKRVCAQINKSLLKIINDYEEFSKERSSSLEGSPDEFSNGEELCGVMTISDSPREQDSESQTLDKVYQMKSKPRGYCLIINNHNFAKAREKVPKLHSIRDRNGTHLDAGALTTTFEELHFEIKPHDDCTVEQIYEILKIYQLMDHSNMDCFICCILSHGDKGIIYGTDGQEAPIYELTSQFTGLKCPSLAGKPKVFFIQACQGDNYQKGIPVETDSEEQPYLEMDLSSPQTRYIPDEADFLLGMATVNNCVSYRNPAEGTWYIQSLCQSLRERCPRGDDILTILTEVNYEVSNKDDKKNMGKQMPQPTFTLRKKLVFPSD [CASP8] | 0.075 | 48.5 | 48.7 | -0.167 | 0.959 | 2 |
